Holding throughout (assay): cell-based or functional assay
The target in experiment [1] is T1, NF-AT3 expressed from an expression construct in HepG2 cells.
T1 sequence (Q14934 1-902, species assumed, looked up): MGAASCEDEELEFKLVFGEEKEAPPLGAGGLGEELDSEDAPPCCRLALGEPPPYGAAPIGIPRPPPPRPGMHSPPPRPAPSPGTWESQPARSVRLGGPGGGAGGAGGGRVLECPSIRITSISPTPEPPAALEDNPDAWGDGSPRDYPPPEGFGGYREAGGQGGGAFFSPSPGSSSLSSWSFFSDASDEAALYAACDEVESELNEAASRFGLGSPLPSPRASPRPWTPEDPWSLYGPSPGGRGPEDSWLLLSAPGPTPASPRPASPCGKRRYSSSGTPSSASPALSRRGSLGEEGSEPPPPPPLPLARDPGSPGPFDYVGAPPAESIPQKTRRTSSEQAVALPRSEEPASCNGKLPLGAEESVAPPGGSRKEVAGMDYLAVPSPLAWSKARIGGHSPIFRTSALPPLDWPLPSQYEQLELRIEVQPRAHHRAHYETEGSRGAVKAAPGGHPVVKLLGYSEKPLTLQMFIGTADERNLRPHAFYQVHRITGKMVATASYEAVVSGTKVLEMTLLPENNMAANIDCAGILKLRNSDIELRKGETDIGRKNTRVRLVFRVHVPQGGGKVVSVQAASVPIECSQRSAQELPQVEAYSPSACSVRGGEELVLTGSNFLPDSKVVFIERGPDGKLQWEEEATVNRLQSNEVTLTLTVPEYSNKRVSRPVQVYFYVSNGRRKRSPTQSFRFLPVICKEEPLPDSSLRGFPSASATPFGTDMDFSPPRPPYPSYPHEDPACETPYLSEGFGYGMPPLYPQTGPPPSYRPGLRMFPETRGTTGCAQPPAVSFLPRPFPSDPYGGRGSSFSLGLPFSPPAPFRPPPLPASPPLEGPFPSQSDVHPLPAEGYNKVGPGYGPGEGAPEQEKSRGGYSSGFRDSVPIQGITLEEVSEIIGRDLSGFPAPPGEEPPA

Experiment [2] concerns the target T2, NF-AT4 expressed from an expression construct.
T2 sequence (Q12968 2-1075, species assumed, looked up): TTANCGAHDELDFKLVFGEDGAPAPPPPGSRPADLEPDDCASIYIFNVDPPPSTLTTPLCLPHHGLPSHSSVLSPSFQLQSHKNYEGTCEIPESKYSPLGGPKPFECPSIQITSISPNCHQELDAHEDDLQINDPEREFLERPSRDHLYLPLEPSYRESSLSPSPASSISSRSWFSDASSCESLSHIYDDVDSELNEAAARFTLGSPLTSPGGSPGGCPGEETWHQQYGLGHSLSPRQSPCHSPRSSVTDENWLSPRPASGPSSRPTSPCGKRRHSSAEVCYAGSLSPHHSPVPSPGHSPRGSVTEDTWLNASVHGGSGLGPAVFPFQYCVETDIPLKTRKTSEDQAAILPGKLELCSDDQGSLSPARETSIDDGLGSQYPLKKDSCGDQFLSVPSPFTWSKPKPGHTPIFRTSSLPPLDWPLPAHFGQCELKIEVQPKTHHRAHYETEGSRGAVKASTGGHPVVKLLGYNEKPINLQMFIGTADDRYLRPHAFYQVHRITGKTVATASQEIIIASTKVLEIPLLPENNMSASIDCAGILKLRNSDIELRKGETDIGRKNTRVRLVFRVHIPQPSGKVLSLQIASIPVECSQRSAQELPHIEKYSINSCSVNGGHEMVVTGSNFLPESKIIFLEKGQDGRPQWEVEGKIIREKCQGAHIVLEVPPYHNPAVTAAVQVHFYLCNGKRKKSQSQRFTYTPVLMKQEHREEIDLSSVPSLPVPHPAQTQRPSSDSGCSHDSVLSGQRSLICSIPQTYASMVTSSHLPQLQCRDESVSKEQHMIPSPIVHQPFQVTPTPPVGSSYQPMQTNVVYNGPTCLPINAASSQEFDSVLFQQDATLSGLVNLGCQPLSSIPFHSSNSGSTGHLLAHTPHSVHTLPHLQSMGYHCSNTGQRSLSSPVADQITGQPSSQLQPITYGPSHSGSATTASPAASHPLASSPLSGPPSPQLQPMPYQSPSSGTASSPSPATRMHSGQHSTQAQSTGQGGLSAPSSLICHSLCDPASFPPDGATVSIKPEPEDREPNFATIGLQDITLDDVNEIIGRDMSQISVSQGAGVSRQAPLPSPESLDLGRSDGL

The target of experiment [3] is T3, NF-ATc expressed from an expression construct in HepG2 cells.
T3 sequence (O95644 1-943, species assumed, looked up): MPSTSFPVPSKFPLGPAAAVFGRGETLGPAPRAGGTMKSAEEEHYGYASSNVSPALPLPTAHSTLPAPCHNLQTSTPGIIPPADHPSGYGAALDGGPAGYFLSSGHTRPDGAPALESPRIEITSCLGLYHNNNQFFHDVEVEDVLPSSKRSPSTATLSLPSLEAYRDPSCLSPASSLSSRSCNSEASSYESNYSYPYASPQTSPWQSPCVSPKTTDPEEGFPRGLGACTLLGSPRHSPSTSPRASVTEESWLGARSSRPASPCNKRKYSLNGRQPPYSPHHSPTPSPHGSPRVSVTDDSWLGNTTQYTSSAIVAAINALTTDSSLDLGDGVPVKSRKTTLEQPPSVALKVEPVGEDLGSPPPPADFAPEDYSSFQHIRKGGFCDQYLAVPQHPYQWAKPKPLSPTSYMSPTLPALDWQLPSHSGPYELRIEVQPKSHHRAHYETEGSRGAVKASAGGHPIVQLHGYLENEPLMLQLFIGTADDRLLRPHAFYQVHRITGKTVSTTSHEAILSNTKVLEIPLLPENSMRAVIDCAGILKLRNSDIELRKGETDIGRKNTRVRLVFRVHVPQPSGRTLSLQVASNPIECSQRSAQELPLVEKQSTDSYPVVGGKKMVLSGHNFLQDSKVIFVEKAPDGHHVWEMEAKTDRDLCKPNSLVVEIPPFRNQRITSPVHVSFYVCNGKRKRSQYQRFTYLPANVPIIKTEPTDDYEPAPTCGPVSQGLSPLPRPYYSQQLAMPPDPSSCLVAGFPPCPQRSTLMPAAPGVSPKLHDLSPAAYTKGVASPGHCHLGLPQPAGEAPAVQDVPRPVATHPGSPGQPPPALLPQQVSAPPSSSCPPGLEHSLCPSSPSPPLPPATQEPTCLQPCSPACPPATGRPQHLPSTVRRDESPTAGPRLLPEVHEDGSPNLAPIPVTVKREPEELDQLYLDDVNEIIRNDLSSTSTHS

Experiment [4] deals with T4, NF-ATp expressed from an NF-ATp expression plasmid in HepG2 cells.
T4 sequence (Q13469 1-925, species assumed, looked up): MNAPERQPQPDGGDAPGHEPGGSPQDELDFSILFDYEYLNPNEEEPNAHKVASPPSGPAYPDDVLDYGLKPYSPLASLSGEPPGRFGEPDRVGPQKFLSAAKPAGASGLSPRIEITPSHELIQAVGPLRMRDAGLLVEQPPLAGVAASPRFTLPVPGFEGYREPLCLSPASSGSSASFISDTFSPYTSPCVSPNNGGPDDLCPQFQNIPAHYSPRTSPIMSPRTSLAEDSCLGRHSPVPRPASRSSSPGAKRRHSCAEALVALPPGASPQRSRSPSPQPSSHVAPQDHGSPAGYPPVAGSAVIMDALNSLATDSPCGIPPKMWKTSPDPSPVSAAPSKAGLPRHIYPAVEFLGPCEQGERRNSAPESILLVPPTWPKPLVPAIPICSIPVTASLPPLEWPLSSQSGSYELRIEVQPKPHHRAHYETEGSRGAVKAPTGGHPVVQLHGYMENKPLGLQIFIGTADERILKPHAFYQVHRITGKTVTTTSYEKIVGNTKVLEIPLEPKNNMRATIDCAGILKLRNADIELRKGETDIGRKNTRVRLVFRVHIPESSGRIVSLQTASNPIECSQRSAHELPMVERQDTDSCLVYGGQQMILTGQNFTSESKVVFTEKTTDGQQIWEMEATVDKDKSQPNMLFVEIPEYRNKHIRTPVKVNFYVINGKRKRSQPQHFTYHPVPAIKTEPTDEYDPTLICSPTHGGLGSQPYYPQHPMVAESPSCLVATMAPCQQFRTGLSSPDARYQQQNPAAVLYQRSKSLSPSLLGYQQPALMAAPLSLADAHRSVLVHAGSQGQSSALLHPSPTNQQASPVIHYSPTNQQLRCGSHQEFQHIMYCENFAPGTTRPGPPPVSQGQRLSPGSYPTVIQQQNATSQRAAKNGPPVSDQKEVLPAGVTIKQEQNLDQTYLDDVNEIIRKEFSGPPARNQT

B1: NIP45 expressed from a NIP45 expression plasmid (protein)
chain: MAEPLRGRGPRSRGGRGARRARGARGRCPRARQSPARLIPDTVLVDLVSDSDEEVLEVADPVEVPVARLPAPAKPEQDSDSDSEGAAEGPAGAPRTLVRRRRRRLLDPGEAPVVPVYSGKVQSSLNLIPDNSSLLKLCPSEPEDEADLTNSGSSPSEDDALPSGSPWRKKLRKKCEKEEKKMEEFPDQDISPLPQPSSRNKSRKHTEALQKLREVNKRLQDLRSCLSPKQHQSPALQSTDDEVVLVEGPVLPQSSRLFTLKIRCRADLVRLPVRMSEPLQNVVDHMANHLGVSPNRILLLFGESELSPTATPSTLKLGVADIIDCVVLASSSEATETSQELRLRVQGKEKHQMLEISLSPDSPLKVLMSHYEEAMGLSGHKLSFFFDGTKLSGKELPADLGLESGDLIEVWG
For the molecule B1, the transactivation of a 3X NF-AT-CAT reporter in HepG2 cells is 3 fold in experiment [1], 2 fold in experiment [2] and 4 fold in experiment [3]. The CAT activity of a 3X NF-AT-CAT reporter in HepG2 cells, relative to NF-ATp alone in experiment [4] lay within 4 to 5 fold. This molecule also returned a CAT activity of a 3X NF-AT-CAT reporter in HepG2 cells, relative to vector alone in experiment [4] of 25 to 30 fold.

(Values after US20040024185A1.)
